Data published in publication PMC5449601.

Key:
[1] = biological target: HNRNPG N-RRM (GST fusion) (human, UniProt P38159 1-83); assay: EMSA
[2] = biological target: HNRNPG C-RBD (GST fusion) (human, UniProt P38159 334-391); assay: EMSA
[3] = biological target: HNRNPG C-RBD mutant, all three RGG to FGG (GST fusion) (human, UniProt P38159 334-391, R373F;R377F;R384F); assay: UV cross-linking
Sequence of HNRNPG C-RBD mutant, all three RGG to FGG (GST fusion) (P38159 334-391 R373F/R377F/R384F): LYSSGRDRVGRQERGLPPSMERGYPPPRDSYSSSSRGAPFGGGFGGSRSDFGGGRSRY

Sequence of HNRNPG C-RBD (GST fusion) (P38159 334-391): as the sequence (P38159 334-391 R373F/R377F/R384F) above, with F40R, F44R, F51R counted along it
Sequence of HNRNPG N-RRM (GST fusion) (P38159 1-83): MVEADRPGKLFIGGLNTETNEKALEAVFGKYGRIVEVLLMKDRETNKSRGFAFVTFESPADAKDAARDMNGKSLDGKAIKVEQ

AAUGUGAAGGACUUUCGUAACGGAAGUAAUUCAA (structured_RNA, 3' biotin) [MALAT1 hairpin 2,515-A]: no binding [1]; binds [2]; no binding [3].

AAUGUGAAGGACUUUCGUAACGGAAGUAAUUCAA (structured_RNA, m6A at position 11; 3' biotin) [MALAT1 hairpin 2,515-m6A]: no binding [1]; binds [2]; no binding [3].
